Among the data in patent US20220089784A1 (University of California, published 2022) are Kd values, retold here.

In general, Kd refers to the constant that tells how readily two partners part at equilibrium.

The chains are these.
B1: 31H3 scFv (scFv)
scFv: EVQLQQSGAELVRPGASVKMSCKASGYPFTIYWITWVKQRPGQGLEWIGEIYPGSGFTKYNEKFRSKATLTVDTSSSTAYMQLSSLTSEDSAVYYCALYGSNFDYWGQGTTLTVSSVDLKSGGSTSGSGKPGSGEGSSGSARDIVMTQSPAIMSASPGEKVTMPCSASSSVSYMHWYQQKPGTSPKRWIYDTSKLASGVPARFSGSGSGTSYSLTISRVEAEDAATYYCQQWSSHPPTFGAGTRLEIK
notes: mouse
B2: 34E8B12 scFv (scFv)
scFv: QVQLVESGPDLVKPSQSLSLTCTVTGYSITSGYSWHWIRQFPGNKLEWMGYIHYSGSTNYNPSLKSRISITRDTSKNQFFLQLNSVTTEDTATYYCAVYYDYDGDYFDYWGQGTTLTVSSVDLKSGGSTSGSGKPGSGEGSSGSARDVVMTQSPAIMSASPGEKVTMTCSASSSVSYMYWFQQKPGSSPKPWIYRTSNLAPGVPARFSGSGSGTSYSLTISSMEAEDAATYYCQQWSSNPPWTFGGGTKLEIK
notes: mouse
B3: 31E2 scFv (scFv)
scFv: EVKLVESGAELVRPGASVKLSCTASGFNIKDDYVHWVKQRPEQGLEWIGRIDPEDGETKYAPKFQGKATITADTSSNTAYLQLSSLTSEDTAVYYCALWSNWYFDVWGAGTTVTVSSVDLKSGGSTSGSGKPGSGEGSSGSAREIVLTQSPAIMSASPGEKVTMTCRASSSVSYMHWYQQKPGSSPKPWIYATSNLASGVPARFSGSGSGTSYSLTISRVEAEDAATYYCQQWTSNPPTFGGGTKLEIK
notes: mouse
B4: 31E2.20 scFv (scFv)
scFv: EVKLVESGAELVRPGASVKLSCTASGFNIKDDYVHWVKQRPEQGLEWIGRIDPEDGETKYAPKFQGKATITADTSSNTAYLQLSSLTSEDTAVYYCALWSNWYFDVWGAGTTVTVSAVDLKSGGSTSGSGKPGSGEGSSGSAREIVLTQSPEILSASPGEKVTMTCRASSSVSYMHWYQQKPGSSPKPWIYATSNLASGVPARFSGSGSGTSYSLTISSMEAEDAATYYCQQFHNYPPTFGAGTKLELK
notes: mouse
B5: 31A5 scFv (scFv)
scFv: DVQLQESGPELVKPGASVKISCKASGYSFTDYNMNWVKQSNGKSLEWIGVINPNYGTTSYNQKFKGKATLTVDQSSSTAYMQLNSLTSEDSAVYYCARSGGTGYYFDYWGQGTTLTVSSVDLKSGGSTSGSGKPGSGEGSSGSARQIVLTQSPAILSASPGEKVTMTCRASSSVSYMHWYQQKPGSSPKAWIYATSNLASGVPARFSGSGSGTSYSLTISRVEAEDAATYYCQQWSSYPPTFGSGTKLEIK
notes: mouse
B6: 31A5.1 scFv (scFv)
scFv: DVQLQESGPELVKPGASVKISCKASGYSFTDYNMNWVKQSNGKSLEWIGVINPNYGTTSYNQKFKGKATLTVDQSSSTAYMQLNSLTSEDSAVYYCARSGGTGYYFDYWGQGTTLTVSSVDLKSGGSTSGSGKPGSGEGSSGSARQIVLTQSPAILSASPGEKVAMTCRASSSVSYMHWYQQKPGSSPKLLIYDTSNLASGVPVRFSGSGSGTSYSLTISRMEAEDAATYYCQQWSSYPPTFGGGTKLEIK
notes: mouse
B7: 18F2 scFv (scFv)
scFv: EVQLQQSGPELMKPGASVKISCKASGYAFSRSWMNWVKQRPGKGLEWIGRIYPGDGDTNYNGKFKDKASLTADTSSSTAYMQLSSLTSEDSAVYFCTKSEGYYHNLGAYWGQGTTVTVSSVDLKSGGSTSGSGKPGSGEGSSGSAREIVLTQSPAIMSASPGQKVTITCSASSSVSYMHWYQQKSGTSPKRWIYDTSKLASGVPARFSGSGSGTSYSLIISSMEAEDAATYYCQQWRSNPPTFGGGTRLEIK
notes: mouse
B8: 31G2 scFv (scFv)
scFv: QVQLQQSGAELVKPGASVKLSCTASGFNIKDTYMHWVKQRPEQGLEWIGRIDPEDGETKYAPKFQGKATITADTSSNTAYLQLSSLTSEDTAVYYCARWLLYYYAMDYWGQGTSVTVSAVDLKSGGSTSGSGKPGSGEGSSGSARQIVLTQSPALMAASPGEKVTITCSVSSSISSSNLHWYQQKSETSPKPWIYGTSNLASGVPARFSGSGSGTSYSLTISRVEAEDAATYYCHQRSSYPLTFGAGTKLEIK
notes: mouse
B9: 31C3 scFv (scFv)
scFv: EVKLVETGPELKKPGETVKISCKASGYTFTNYGMNWVKQAPGKGLKWMGWINTNTGEPTYAEEFKGRFAFSLETSASTAFLQINNLKNEDTATYFCARGPIYYGTSYRFFDVWGTGTSVTVSSVDLKSGGSTSGSGKPGSGEGSSGSARQIVLTQSPAIMSASPGEKVTMTCRASSSVSSSYLHWYQQKPGSSPKLWIYSTSNLASGVPARFSGSGSGTSYSLTISRMEAEDAATYFCQQWSSFPPTFGGGTKLELK
notes: mouse
B10: 37B4 scFv (scFv, V domains shown)
VH: QVQLVQSGAEVKKPGSSVKVSCKASGGTFSSYAISWVRQAPGQGLEWMGGIIPIFGTANYAQKFQGRVTITTDTSTSTAYMELRSLRSDDTAVYYCARDEDYYDSSGYYDYWGQGTLVTVSS
VL: QTVVTQEPSLTVAPGGTVTLTCGSSAGAVTTDHYPSWFQKKPGQAPTTIIYDTTNKHSMTPGPARFSGSLLGGKAALTLSGAQPEDEAEYYCFLSYRGSRPVFGGGTKVTVL
B11: 39D1.1 scFv (scFv, V domains shown)
VH: EVQLVQSGGNLVQPGGSLRLSCAATGPIGSHWMTWVRQAPGQGLEWVANINLDGTEKFYVDSVKGRFTVSRDNRKSSVFLQMNNLRVDDTAVYYCARLQWGGYDGWLSPWGQGTLVTVSS
VL: DIVMTQSPPSLSASVGDRVSLTCRASEYIGTSLNWYQQKPGKAPKLLIYAASALHSGVPSRFSGSGSGTDFTLTISGLQPEDFATYYCQQANDLPLTFGGGTKLEIK
B12: 41B7 scFv (scFv, V domains shown)
VH: EVQLVQSGGNLVQPGGSLRLSCAATGPIGSHWMTWVRQAPGQGLEWVANINLDGTEKFYVDSVKGRFTVSRDNRKSSVFLQMNNLRVDDTAVYYCARLQWGGYDGWLSPWGQGTLVTVSS
VL: DIVMTQSPPSLSASVGDRVSLTCRASEYIGTSLNWYQQKPGTAPKLLIYAASALHSGVPSRFSGSGSGTDFTLTISGLQPEDFATYYCQQANDLPLTFGGGTKLEIK
B13: 41A4 scFv (scFv, V domains shown)
VH: EVQLVQSGGNLVQPGGSLRLSCAATGPIGSHWMTWVRQAPGQGLEWVANINLDGTEKFYVDSVKGRFTVSRDNRKSSVFLQMNNLRVDDTAVYYCARLQWGGYDGWLSPWGQGTLVTVSS
VL: DIVMTQSPPSLSASVGDRVSLTCRASEYIGTSLNWYQQKPGKAPKLLIYAASALHSGVPSRFSGSGSGTDFTLTISGLQPEDFATYYCQQTNDLPLTFGGGTKLEIK
B14: 38D11 scFv (scFv, V domains shown)
VH: QVQLQESGGGVVQPGRSLRLSCAASGFTFSSYGMHWVRQAPGKGLEWVAVIWYDGSNKYYADSVKGRFTISRDNSKNTLYLQMNSLRAEDTAVYYCARDKGWELMTNTDAFDIWGQGTLVTVSS
VL: not shown

For the first test, the target named is T1, BoNT/B light chain (recombinant) (Clostridium botulinum, UniProt P10844 1-441).
T1 sequence: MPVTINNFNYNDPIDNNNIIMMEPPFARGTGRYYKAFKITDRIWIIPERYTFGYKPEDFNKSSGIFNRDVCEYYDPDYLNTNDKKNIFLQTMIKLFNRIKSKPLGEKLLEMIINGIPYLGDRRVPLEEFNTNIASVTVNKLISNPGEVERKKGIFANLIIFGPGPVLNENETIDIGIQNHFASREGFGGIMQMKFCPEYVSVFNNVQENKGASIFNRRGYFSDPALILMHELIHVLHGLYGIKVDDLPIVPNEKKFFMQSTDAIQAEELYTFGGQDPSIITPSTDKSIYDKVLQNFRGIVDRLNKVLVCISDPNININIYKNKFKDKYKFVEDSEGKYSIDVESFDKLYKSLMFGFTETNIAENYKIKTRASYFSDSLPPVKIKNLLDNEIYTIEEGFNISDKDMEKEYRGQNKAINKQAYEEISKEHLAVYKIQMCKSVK
Put plainly: yeast scFv FACS.
As for B1, the Kd was 1.28 nM. Same read-out and setting: the same measure for B2: 2.44 nM. The same measure, in the same setting: for B3 the value was 17.1 nM. Same read-out and setting: for B4 the value was 1.96 nM; for B5, 9.31 nM; for B6, 1.75 nM. Take B7: the Kd stood at 1.05 nM.

Consider B8, for which the Kd came out at 3.34 nM.

Turning to B9, the Kd was determined as 5.27 nM.

The target in another test is T2, BoNT/F1 (proteolytic BoNT/F) (Clostridium botulinum, UniProt A7GBG3 1-1278).
T2 sequence: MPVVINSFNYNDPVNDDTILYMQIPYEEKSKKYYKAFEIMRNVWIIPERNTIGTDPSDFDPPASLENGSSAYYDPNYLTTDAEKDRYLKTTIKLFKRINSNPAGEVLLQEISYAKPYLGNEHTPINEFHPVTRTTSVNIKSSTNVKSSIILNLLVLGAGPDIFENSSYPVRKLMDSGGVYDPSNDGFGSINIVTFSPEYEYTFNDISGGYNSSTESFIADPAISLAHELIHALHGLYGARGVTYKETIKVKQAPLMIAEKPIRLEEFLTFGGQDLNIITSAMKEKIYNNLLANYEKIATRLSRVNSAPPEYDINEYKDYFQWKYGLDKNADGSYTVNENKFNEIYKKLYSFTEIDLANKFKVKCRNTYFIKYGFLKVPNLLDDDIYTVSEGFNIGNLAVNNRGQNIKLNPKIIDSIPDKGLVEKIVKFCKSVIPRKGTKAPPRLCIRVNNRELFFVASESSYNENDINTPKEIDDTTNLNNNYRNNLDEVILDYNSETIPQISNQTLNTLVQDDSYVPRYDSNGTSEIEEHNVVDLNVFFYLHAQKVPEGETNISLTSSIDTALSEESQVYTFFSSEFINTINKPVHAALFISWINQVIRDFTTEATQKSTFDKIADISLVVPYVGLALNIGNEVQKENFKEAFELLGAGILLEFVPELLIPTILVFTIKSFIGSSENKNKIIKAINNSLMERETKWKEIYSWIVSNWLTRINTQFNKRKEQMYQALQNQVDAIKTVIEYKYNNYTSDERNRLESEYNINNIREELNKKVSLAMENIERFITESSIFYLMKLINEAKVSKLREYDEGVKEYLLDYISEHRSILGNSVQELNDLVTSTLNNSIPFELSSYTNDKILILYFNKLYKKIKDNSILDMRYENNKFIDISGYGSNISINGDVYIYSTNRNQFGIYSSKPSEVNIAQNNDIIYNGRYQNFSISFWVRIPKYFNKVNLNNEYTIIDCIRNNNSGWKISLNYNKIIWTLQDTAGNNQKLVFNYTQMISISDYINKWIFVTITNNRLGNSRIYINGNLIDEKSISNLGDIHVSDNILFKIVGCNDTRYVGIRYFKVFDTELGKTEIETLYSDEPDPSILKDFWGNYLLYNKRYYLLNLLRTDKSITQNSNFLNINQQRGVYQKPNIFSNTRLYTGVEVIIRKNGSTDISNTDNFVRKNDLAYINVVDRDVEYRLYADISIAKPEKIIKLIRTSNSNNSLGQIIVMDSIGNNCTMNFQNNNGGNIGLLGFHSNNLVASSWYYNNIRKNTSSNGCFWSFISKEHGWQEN
Put plainly: yeast scFv FACS.
Molecule B10 yielded a Kd of 10.1 nM. Still for that read-out and setting: for B11 the value was 0.747 nM. The same measure, in the same setting: for B12 the value was 0.892 nM; for B13, 0.533 nM; for B14, 29.1 nM.
